From EP4592321A1 (Biotheus Inc., dated 2025)

B1: Anti-HER2(NO3-02) (antibody, human IgG1, kappa, V domains shown)
VH: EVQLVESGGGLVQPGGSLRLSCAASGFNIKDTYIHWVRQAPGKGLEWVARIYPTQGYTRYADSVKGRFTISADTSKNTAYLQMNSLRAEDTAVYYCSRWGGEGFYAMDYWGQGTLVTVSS
VL: DIQMTQSPSSLSASVGDRVTITCRASQNVQGAVAWYQQKPGKAPKLLIYSASFLYSGVPSRFSGSRSGTDFTLTISSLQPEDFATYYCQQHYSTPPTFGQGTKVEIKR
notes: also called optimized Anti-HER2 antibody
B2: Anti-HER2(NO3-36) (antibody, human IgG1, kappa, V domains shown)
VH: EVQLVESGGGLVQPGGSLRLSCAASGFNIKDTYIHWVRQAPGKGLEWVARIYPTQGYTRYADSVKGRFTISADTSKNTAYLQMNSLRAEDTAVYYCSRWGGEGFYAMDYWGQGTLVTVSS
VL: DIQMTQSPSSLSASVGDRVTITCRASNYVQTAVAWYQQKPGKAPKLLIYSASFLYSGVPSRFSGSRSGTDFTLTISSLQPEDFATYYCQQHFMTPPTFGQGTKVEIKR
notes: as for B1
B3: Anti-HER2(NO3-46) (antibody, human IgG1, kappa, V domains shown)
VH: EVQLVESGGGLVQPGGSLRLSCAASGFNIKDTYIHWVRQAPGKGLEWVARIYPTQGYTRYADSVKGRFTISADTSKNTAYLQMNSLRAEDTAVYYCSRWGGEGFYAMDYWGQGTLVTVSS
VL: DIQMTQSPSSLSASVGDRVTITCRASQSVQGAVAWYQQKPGKAPKLLIYSASFLYSGVPSRFSGSRSGTDFTLTISSLQPEDFATYYCQQHSTTPPTFGQGTKVEIKR
notes: as for B1
B4: Anti-HER2(NO3-02)_single arm (antibody, human IgG1, kappa)
heavy: not shown
light: DIQMTQSPSSLSASVGDRVTITCRASQNVQGAVAWYQQKPGKAPKLLIYSASFLYSGVPSRFSGSRSGTDFTLTISSLQPEDFATYYCQQHYSTPPTFGQGTKVEIKRTVAAPSVFIFPPSDEQLKSGTASVVCLLNNFYPREAKVQWKVDNALQSGNSQESVTEQDSKDSTYSLSSTLTLSKADYEKHKVYACEVTHQGLSSPVTKSFNRGEC
chain: not shown
notes: also called Anti-HER2 single-arm antibody
B5: Anti-HER2(NO3-36)_single arm (antibody, human IgG1, kappa)
heavy: not shown
light: DIQMTQSPSSLSASVGDRVTITCRASNYVQTAVAWYQQKPGKAPKLLIYSASFLYSGVPSRFSGSRSGTDFTLTISSLQPEDFATYYCQQHFMTPPTFGQGTKVEIKRTVAAPSVFIFPPSDEQLKSGTASVVCLLNNFYPREAKVQWKVDNALQSGNSQESVTEQDSKDSTYSLSSTLTLSKADYEKHKVYACEVTHQGLSSPVTKSFNRGEC
chain: not shown
notes: as for B4
B6: Anti-HER2(NO3-46)_single arm (antibody, human IgG1, kappa)
heavy: not shown
light: DIQMTQSPSSLSASVGDRVTITCRASQSVQGAVAWYQQKPGKAPKLLIYSASFLYSGVPSRFSGSRSGTDFTLTISSLQPEDFATYYCQQHSTTPPTFGQGTKVEIKRTVAAPSVFIFPPSDEQLKSGTASVVCLLNNFYPREAKVQWKVDNALQSGNSQESVTEQDSKDSTYSLSSTLTLSKADYEKHKVYACEVTHQGLSSPVTKSFNRGEC
chain: not shown
notes: as for B4

What was measured:
[1] = biological target: T1, human HER2 antigen (purchased from AcroBiosystems) (human, UniProt P04626 23-652); test: BLI (ForteBio), antibody on AHQ sensor, 100 nM HER2, 1:1 model
T1 construct: Bought soluble antigen used at 100 nM in BLI; also called human HER2 protein; HER2 protein

[2] = biological target: T2, HER2 expressed on human gastric cancer cell N87 (human, UniProt P04626 23-1255); test: flow cytometry on N87 cells, MFI, anti-human IgG-Fc PE
T2 construct: whole, on cells; N87 cells are described as self-expressing HER2; also called human HER2 on N87 cells; HER2 antigen on N87

[3] = biological target: T1, human HER2 antigen (purchased from …); test: BLI (ForteBio), antibody before and after 2 and 4 weeks at 40 C on AHQ sensor, 100 nM human HER2

Binder | binding result [1] | binding result [2] | binding result [3]
B1 | binds | binds | –
B2 | binds | binds | –
B3 | – | binds | binds
B4 | binds | binds | –
B5 | binds | binds | –
B6 | binds | binds | –
